According to US10500249B2, “Compositions and methods for preventing or treating diseases, conditions, or processes characterized by aberrant fibroblast proliferation and extracellular matrix deposition” (MOERAE MATRIX, INC., priority 2014, dated 2019):

Experiments:
Experiment in all cases: Kinase Profiling Assay
Format in all cases: biochemical
Conditions in all cases: 100 μM
BrSK1 (h) = target: T1, BrSK1 (h) (Homo sapiens, UniProt Q8TDC3)
T1 sequence (Q8TDC3 1-778): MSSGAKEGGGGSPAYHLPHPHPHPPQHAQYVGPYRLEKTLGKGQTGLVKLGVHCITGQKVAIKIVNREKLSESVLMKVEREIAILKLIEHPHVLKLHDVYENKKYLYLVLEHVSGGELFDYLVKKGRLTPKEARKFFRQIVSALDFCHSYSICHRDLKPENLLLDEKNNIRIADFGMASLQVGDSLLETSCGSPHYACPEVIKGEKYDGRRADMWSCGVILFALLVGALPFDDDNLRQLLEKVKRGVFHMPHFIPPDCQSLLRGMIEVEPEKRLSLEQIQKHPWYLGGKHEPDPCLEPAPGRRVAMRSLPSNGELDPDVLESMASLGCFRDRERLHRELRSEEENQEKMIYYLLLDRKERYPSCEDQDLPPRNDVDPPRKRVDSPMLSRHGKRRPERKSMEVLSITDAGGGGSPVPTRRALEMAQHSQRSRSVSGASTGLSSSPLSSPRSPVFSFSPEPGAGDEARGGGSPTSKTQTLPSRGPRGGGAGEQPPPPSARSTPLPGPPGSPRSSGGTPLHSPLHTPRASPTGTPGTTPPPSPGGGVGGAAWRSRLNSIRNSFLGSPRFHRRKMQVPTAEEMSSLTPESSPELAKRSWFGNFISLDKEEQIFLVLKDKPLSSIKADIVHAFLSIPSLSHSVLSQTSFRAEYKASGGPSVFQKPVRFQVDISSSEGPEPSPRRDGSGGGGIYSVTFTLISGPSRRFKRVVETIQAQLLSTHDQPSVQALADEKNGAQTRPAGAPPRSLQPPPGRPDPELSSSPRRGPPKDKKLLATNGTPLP
Method in brief: (§1)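 Scintillation counting quantifies radiolabeled, positively charged substrate retained on a negatively charged filter after kinase reaction with labeled ATP; inhibitor peptide present.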

Aurora-A (h) = target: T2, Aurora-A (h) (Homo sapiens, UniProt O14965)
T2 sequence (O14965 1-403): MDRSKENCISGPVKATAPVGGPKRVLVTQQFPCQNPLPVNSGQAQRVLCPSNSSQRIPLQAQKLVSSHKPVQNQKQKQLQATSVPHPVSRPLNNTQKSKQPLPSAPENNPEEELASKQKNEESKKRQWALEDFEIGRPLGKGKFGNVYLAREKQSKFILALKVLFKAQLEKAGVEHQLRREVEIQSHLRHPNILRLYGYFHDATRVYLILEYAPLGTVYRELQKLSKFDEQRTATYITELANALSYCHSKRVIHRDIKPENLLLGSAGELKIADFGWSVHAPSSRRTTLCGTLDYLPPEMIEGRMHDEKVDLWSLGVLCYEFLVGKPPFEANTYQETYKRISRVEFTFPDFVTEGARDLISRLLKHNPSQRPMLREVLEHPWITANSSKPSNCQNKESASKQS
Method in brief: as §1

ULK2 (h) = target: T3, ULK2 (h) (Homo sapiens, UniProt Q8IYT8)
T3 sequence (Q8IYT8 1-1036): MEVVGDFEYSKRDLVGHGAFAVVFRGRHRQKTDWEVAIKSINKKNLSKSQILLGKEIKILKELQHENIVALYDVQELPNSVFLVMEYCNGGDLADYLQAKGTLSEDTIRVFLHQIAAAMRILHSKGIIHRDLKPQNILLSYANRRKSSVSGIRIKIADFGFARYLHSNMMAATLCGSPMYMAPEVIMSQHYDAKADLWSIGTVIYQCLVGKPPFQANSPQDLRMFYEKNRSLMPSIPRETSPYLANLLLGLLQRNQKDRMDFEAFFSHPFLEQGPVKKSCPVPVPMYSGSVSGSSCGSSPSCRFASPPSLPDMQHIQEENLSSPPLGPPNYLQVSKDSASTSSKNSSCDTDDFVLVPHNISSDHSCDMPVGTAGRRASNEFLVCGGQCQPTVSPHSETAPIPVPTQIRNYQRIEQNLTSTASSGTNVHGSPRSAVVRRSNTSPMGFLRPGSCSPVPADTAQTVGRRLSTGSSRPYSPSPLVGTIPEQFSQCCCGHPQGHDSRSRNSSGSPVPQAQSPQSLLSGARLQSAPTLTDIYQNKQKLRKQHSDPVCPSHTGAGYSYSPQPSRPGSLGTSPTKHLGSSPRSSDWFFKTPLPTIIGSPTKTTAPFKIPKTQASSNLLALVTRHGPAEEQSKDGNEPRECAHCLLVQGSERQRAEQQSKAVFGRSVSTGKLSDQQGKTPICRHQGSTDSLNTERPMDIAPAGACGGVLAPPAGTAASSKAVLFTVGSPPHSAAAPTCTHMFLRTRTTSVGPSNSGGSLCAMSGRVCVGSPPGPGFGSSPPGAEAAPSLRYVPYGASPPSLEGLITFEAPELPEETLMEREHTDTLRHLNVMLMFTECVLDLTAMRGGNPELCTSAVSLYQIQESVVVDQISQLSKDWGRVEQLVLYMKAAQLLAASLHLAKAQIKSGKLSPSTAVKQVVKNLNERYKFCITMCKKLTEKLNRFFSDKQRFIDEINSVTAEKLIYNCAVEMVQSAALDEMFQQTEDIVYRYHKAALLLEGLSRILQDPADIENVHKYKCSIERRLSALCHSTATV
Method in brief: as §1

EGFR(T790M) (h) = target: T4, EGFR(T790M) (h) (Homo sapiens, UniProt P00533, T790M)
T4 construct: purchased Millipore
Method in brief: as §1

Met (h) = Met (h) (Homo sapiens, UniProt P08581)
Sequence of Met (h) (P08581 25-1390): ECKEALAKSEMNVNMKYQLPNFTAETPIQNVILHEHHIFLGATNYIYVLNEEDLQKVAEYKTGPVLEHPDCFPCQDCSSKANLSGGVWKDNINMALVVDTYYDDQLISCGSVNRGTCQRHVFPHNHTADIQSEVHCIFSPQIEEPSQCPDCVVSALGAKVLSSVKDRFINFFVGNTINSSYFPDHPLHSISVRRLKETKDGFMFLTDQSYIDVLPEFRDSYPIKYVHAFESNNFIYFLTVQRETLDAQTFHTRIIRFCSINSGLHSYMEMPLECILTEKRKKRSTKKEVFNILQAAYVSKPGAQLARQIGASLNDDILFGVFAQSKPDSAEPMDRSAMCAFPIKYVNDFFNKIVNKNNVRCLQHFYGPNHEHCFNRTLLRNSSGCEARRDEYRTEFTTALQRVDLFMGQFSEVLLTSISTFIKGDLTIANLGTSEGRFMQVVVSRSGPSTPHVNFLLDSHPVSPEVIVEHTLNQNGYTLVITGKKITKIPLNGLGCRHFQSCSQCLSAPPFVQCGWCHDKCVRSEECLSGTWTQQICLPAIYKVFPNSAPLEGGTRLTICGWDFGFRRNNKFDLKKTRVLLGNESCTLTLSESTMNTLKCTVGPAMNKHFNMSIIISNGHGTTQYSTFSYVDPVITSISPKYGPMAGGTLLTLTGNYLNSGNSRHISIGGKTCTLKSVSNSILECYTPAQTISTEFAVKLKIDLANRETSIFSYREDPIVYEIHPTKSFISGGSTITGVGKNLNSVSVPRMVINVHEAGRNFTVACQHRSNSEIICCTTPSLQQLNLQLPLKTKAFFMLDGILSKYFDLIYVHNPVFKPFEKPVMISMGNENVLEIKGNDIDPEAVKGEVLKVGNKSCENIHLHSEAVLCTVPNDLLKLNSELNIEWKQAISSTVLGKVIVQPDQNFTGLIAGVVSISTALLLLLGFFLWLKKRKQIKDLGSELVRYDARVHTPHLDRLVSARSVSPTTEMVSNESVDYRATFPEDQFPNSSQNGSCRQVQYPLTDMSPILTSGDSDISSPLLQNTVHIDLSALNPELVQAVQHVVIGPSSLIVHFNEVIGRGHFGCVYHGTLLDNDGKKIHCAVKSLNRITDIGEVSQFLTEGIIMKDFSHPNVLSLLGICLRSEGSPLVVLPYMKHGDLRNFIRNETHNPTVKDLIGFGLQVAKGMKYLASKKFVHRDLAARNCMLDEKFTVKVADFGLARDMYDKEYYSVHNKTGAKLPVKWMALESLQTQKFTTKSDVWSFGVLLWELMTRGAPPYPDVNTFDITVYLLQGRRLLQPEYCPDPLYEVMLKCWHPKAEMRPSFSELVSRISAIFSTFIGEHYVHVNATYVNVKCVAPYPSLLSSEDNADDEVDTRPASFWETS
Method in brief: as §1

CK1γ3 (h) = target: T5, CK1γ3 (h) (Homo sapiens, UniProt Q9Y6M4)
T5 construct: purchased Millipore
T5 sequence (Q9Y6M4 whole entry): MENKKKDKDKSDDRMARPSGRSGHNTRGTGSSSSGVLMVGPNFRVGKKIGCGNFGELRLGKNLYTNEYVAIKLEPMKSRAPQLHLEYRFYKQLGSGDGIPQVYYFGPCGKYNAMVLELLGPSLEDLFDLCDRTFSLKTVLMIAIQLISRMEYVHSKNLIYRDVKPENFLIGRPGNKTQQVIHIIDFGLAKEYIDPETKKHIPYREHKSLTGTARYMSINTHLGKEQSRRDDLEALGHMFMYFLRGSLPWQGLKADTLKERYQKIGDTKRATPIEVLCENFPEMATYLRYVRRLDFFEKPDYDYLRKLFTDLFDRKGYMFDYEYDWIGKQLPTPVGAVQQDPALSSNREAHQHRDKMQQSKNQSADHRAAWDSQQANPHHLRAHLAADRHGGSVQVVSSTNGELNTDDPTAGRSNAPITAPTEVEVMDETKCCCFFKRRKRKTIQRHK
Method in brief: as §1

Plk3 (h) = Plk3 (h) (Homo sapiens, UniProt Q9H4B4)
Sequence of Plk3 (h) (Q9H4B4 whole entry): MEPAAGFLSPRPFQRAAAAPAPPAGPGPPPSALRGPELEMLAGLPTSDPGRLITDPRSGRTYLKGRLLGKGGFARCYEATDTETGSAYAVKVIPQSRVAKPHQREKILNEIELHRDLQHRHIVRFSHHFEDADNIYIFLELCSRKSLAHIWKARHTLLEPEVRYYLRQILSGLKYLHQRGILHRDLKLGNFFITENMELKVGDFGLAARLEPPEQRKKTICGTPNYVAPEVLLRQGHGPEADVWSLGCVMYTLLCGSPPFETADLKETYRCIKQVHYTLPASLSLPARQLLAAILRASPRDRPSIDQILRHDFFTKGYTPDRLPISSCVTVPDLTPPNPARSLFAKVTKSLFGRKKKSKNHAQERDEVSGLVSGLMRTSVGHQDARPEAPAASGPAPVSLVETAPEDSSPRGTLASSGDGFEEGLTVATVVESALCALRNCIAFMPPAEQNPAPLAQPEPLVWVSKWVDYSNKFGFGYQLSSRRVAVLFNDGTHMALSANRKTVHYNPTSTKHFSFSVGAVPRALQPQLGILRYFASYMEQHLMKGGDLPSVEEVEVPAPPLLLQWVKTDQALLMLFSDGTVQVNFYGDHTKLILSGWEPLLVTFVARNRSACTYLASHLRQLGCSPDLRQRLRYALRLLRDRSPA
Method in brief: as §1

CK2 (h) = target: T6, CK2 (h) (Homo sapiens, UniProt P68400)
T6 construct: purchased Millipore
T6 sequence (P68400 whole entry): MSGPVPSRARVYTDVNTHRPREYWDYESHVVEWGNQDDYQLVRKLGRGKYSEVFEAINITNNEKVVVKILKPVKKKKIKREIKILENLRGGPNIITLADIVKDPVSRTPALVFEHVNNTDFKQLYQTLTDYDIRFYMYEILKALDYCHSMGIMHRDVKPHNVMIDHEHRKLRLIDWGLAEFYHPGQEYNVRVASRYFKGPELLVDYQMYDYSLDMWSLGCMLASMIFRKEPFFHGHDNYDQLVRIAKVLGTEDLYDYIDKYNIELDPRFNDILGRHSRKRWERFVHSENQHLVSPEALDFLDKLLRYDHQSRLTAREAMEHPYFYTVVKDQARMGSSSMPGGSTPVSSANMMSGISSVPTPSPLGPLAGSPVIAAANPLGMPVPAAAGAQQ
T6 sequence (P67870 whole entry partner): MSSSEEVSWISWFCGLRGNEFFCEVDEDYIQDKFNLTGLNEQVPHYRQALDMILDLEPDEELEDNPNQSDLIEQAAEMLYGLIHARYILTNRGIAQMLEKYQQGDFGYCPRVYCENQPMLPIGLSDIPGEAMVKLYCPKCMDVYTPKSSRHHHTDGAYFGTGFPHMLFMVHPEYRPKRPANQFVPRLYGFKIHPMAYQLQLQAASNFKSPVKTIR
Method in brief: as §1

MRCKα (h) = target: T7, MRCKα (h) (Homo sapiens, UniProt Q5VT25)
T7 construct: purchased Millipore
Method in brief: as §1

Snk (h) = Snk (h) (Homo sapiens, UniProt Q9NYY3)
Sequence of Snk (h) (Q9NYY3 whole entry): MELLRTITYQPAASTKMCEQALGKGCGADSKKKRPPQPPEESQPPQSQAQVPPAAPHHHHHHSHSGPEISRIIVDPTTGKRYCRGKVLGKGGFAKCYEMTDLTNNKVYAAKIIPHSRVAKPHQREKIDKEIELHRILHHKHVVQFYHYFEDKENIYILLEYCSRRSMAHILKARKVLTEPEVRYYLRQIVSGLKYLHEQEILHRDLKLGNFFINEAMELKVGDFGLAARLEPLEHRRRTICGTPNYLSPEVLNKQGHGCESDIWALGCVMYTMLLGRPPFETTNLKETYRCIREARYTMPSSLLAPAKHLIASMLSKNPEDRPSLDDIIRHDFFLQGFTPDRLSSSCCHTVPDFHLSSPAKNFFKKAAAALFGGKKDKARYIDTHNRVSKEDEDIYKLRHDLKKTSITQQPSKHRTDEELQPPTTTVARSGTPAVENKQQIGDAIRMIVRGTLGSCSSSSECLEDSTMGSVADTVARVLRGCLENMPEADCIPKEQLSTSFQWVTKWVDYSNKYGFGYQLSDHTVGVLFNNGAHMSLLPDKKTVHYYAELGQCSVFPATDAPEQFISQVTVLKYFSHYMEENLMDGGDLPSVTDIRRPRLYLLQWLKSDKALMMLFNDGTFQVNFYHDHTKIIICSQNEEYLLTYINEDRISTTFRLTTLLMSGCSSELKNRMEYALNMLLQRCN
Method in brief: as §1

IGF-1R (h) = target: T8, IGF-1R (h) (Homo sapiens, UniProt P08069)
T8 construct: purchased Millipore
Method in brief: as §1

Row | Sequence | % activity (BrSK1 (h)) [%] | % activity (Aurora-A (h)) [%] | % activity (ULK2 (h)) [%] | % activity (EGFR(T790M) (h)) [%] | % activity (Met (h)) [%] | % activity (CK1γ3 (h)) [%] | % activity (Plk3 (h)) [%] | % activity (CK2 (h)) [%] | % activity (MRCKα (h)) [%] | % activity (Snk (h)) [%] | % activity (IGF-1R (h)) [%]
1 | FAKLAARLYRKALARQLGVAA [MMI-0300] | 67 | 92 | 122 | 100 | 65 | 125 | 127 | 90 |  |  | 
2 | HRRIKAWLKKIKALARQLGVAA (Mammalian) [MMI-0500] | 72 | 110 | 124 | 70 | 27 |  | 122 | 93 | 5 | 122 | 
3 | KAFAKLAARLYRKALARQLGVAA [MMI-0400] | 76 |  | 131 |  | 62 |  | 129 | 101 | 97 | 131 | 90
4 | YARAAARQARAKALNRQLGVA (Mammalian) [MMI-0200] | 93 |  | 132 |  | 71 | 96 |  | 83 |  |  | 49
